In patent US20160030544A1 (published 2016):

Target: fHbp v2.22 WT
Assay: SPR

B1: fH6-7 (other)
chain: TLKPCDYPDIKHGGLYHENMRRPYFPVAVGKYYSYYCDEHFETPSGSYWDHIHCTQDGWSPAVPCLRKCYFPYLENGYNQNYGRKFVQGKSIDVACHPGYALPKAQTTVTCMENGWSPTPRCI
  Kd: 0.3 nM
